Here are results for one substance from PMC6426604, “First Betalain-Producing Bacteria Break the Exclusive Presence of the Pigments in the Plant Kingdom” (mBio, 2019).

This data set has as its system N[C@@H](Cc1ccc(O)c(O)c1)C(=O)O. The experiment in a line: purified protein. Conditions: 50 mM sodium phosphate pH 6.5, 10 mM sodium ascorbate, 25 °C, air. In kind it is biochemical, Gluconacetobacter diazotrophicus.

GdDODA (4,5-DODA from Gluconacetobacter diazotrophicus) (Gluconacetobacter diazotrophicus PA1 5), sequence (chain, as listed by the source): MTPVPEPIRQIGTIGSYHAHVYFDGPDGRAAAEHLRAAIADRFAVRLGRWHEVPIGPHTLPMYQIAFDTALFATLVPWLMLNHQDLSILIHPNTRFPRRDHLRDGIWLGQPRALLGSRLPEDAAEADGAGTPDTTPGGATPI

“GdDODA (4,5-DODA from Gluconacetobacter diazotrophicus) (Gluconacetobacter diazotrophicus PA1 5)”: the Km amounted to 1360 ± 310 µM and the catalytic constant (kcat) was determined as 0.00833 ± 0.000317 s⁻¹.
